From the RNAGym collection of RNA variant scans (doi:10.1073/pnas.2313332121)
Variants at the floor of the assay were thinned out.

B1: TPR 5TU (parent)
chain: GGAUCUUCUCGAUCUAACAAAAAAGACAAAUCUGCCACAAAGCUUGAGAGCAUCUUCGGAUGCAGAGGCGGCAGCCUUCGGUGGCGCGAUAGCGCCAACGUUCUCAACUAUGACACGCAAAACGCGUGCUCCGUUGAAUGGAGUUUAUCAUG

Variants of: B1
Test: polymerase ribozyme fitness, log enrichment relative to wild type (log ratio); higher = more active; in vitro selection for triplet polymerase activity
Summary of the method: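 The heterodimeric triplet polymerase ribozyme's subunits were each mutagenized into PCR-built libraries and transcribed. Every library was selected once, in triplicate, by annealing with a biotinylated primer, the partner subunit and triplets, incubating frozen at −7 °C, gel-excising extended constructs, capturing on streptavidin beads and running RT-PCR. Input and output libraries were Illumina-sequenced, with genotypes kept only at ≥10 input reads and ≥1 read per output. Fitness, from inverse-variance-weighted replicate averages, is the base-2 logarithm of genotype enrichment over wild-type enrichment.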

| Variant | polymerase ribozyme fitness (log ratio) |
| --- | --- |
| GGAUCUUCUCGAUCUAACAAAAAAGACAAAUCUGCCACAAAGCUUGAGUGCAUCUUCGGAUGCAGAGGCGGCUGACUUCGGUGGCGCGAUAGCGCCAACGUUCUCAACUAUGACACGCAAAACGCGUGCUCCGUUGAAUGGAGUUUAUCAUG [A49U A73U C75A] | ≤ -4.2 |
| GGAUCUUCUCGAUCUAACAAGAAAGACAAAUCUGCCACAAAGCUUGAGAGCAUCUUCGGAUGCAGAGCCGGCAGCCUUCGGUGGAGCGAUAACGCCAACGUUCUCAACUAUGACACGCAAAACGCGUUCUCCGUUGAAUGGAGUUUAUCAUG [A21G G68C C85A G92A G128U] | ≤ -4.2 |
| GGAUCUUCUCGAUCUAACAAAAAAGACAAAUCUGCCACAAAGCUUGAGAGCGUCUUCGGAUGCAGAGGCGGCAGCCUUCGGAGGCGCGAUAGCGCCAACGUUCUCAACUAUGACACGCAAAACGCGUGCUCCGUUGAAUGGAGUUUAUCAUG [A52G U82A] | -0.467 |
| GGAUCUUCUCGAUCUAACAAAAAAGACAAAUCUGCCACAAAGCUUGAGAGCAUCUUCGGAUGCAGAGGCGGCAGCCUUCGGUGGCGCGAUAGCGCCAACGUUCUCAACUAUGACACGCAAAACGCGUGCUCCGUUGAAUGGAGUUUAUCGUG [A150G] | -0.734 |
| GGAUCUUCUCGACCUAACAAAAAAGACAAAUCUGCCACAAAGCUUGAGAGCAUCUUCGGAUGCAGAGGCGGCAGCCUGCGGUGGAGCGAUAGCGCCAACGUUCUCAACUAUGACAUGCAAAACGCGUGCUCCGUUGAAUGGAGUUUAUCAUG [U13C U78G C85A C116U] | ≤ -4.2 |
| GGAUCUUCUCGAUCUAACAAAAAAGACAAAUCUGCCACAAAGCUUGAGACCAUCUUCGGAUGCAGAAGCGGCAGCCUUCGGUGGCGCGAGAGCGCCAACGUUCUCAACUAUGACACGCAAAACGCGUGCUCCGUUGAAUGGGGUUUAUCAUG [G50C G67A U90G A142G] | ≤ -4.2 |
| GGAUCUUCUCGAUCUAACAAAAAAGACAAAUCGGCCACAAAGUUUGAGAGCAUCUUCGGUUGCAGAGGCGGCAGCCUUCGGUGGCGCAAUAGCGCCAACGUUCUCAACGAUGACACGCAAAACGCGUGCUCCGUGGAAUGGAAUUUAUCAUG [U33G C43U A60U G88A U109G U135G G143A] | -4.09 |
| GGAUCUUCUCGAUCUAACAAAAAAGACAAAUCUGCCACAAAGCUUGAGAGCAUCUACGGAUGCAGAGGCGGCACCCUUCGGUGGCGCGAUAGCGCCAACGUUCUCAACUAUGACACGCAAAACGCGUGCUCCGUUGAAUGGAGUUUAUCAUG [U56A G74C] | -4.17 |
| GGAUCUUCUUGAGCUAACAAAAAAGAAAAAUCAGCCACAAAGCUUGAGAGCAUCUUCGGAUGCAGAGGCGGCAGGCUUCGGUGGCGCAAUAGCGCCAACGUUCUCAACUAUGACACGCAAAUCGCGUGCUCCGUUGAAUGGAGUUUAUCAUG [C10U U13G C27A U33A C75G G88A A122U] | ≤ -4.2 |
| GGACCUUCUCGAUCUAACAAAAAAGACAAAUCUGCCACAAAGCUUGAGCGCCUCUUCGGAUGCAGAGGCGGCAGCCUUCGGUGGCGCGAUAGCGCCAAAGUUCUCAACUAUGACACGCAAAACGCGUGCUCUGUUUAAUUGAGUUUAUCAUG [U4C A49C A52C C99A C132U G136U G140U] | ≤ -4.2 |
| GGAUGUUCUCGAUCUAACAGAAAAGACAAAUCUGCCACAAAGCUUGAGAGUAUCUUCGGAUGCAGAGGCGGCAGCCUUCGGUGGCGCGAUAGCGCCAACGUUCUCGACUAUGACACGCAAAACGCGUGCUCCGUUGAAUGGAGUUUAUCAUG [C5G A20G C51U A106G] | -1.64 |
| GGAUCUUCUCGAUCUAACAAAAAAGACAAAUCUGCCACAAGGCUUGAGAGCAACUCCGGAUGCAGAGGCGGCAGCAUUCGGUGGCGCGAUAGCGCCAGCGUUCUCAACUAUGACACGCAAAACGCGUGCUCCGUUGAAUGGAGUUUAUCAUG [A41G U53A U56C C76A A98G] | -1.92 |
| GGAUUUUCUCGAUCUAACAAAAAAGACAAAUCUGCCACAAAGCUUGAGAGCAUUUUCGGAUGCAGAGGCGGCAGCCUUCGGAGGCGCGAUAGCGGCAACGUUCUCAACUAUGACACGCAAAACGCGUGCUCCGUUGAAUGGAGUUUAUCUUG [C5U C54U U82A C95G A150U] | -1.62 |
| GGAUCUUCUCGAUCUAGCAAAAAAGACAAAUCUGCCACAAAGCUUGAGAGCAUCUUCGGAUGAAGAGGCGGCAGCCUUCGGUGGCGCGAUAGCGCCAACGUUCUCAACUAUGACACGGAAAACGCGUGCUCCGUUGAAUGGUGUUUAUCAUG [A17G C63A C118G A142U] | -2.32 |
| GGAUCUUCUCGAUCUAACAAAUAAGACAAAUCUGCCACUCAGCUUGAGAGCAUCUUCGGAUGCAGCGGCGGCAGCCUUCGGUGGCGCGAUAGCGCCAACGUUCUUAACUAUGACACGCAAAACGCGUGCUCCGUUGAAUGGAGUUUAUCAUG [A22U A39U A40C A66C C105U] | ≤ -4.2 |
| GGAUCUUCUCGAUCUAACAAAAAAGACAAAUCUGCCACAAAGCUUGAGAGCAUCUUCGGAUGCAGAGGAGGCAGCCUUCGGUGGCGCGAUAGCCCCAACGUUCUCAACUAUGACACGCAAAACGCGUGCUCCGUUGAAUGGAGUUUAUCAUG [C69A G94C] | -0.673 |
| GGAUCUUAUCGUUCUAACAAAAAAGACAAAUCUGCCACAAAGCUUGAGAGCAUCUUCGGAAGCAGAGGCGGCAGCCUUUGGUGUGGCGAUAGCGCCAACGUUCUCAACUAUGACACGUGAAACGCGUGAUCCGUUGAAUGGACUUUAGCAUG [C8A A12U U61A C79U G84U C85G C118U A119G C129A G143C U148G] | ≤ -4.2 |
| GGAUCUUCUCGAUCUAACACAAAAGACAAAGCUGCCACAUAGCUUGAGAGCAUCUUCGGAUGCAGAGGCGGCAGCCUUCGGUGGCGCGAUAGCGCCAACGUUCUCAACUAUGACACGCAAAACGCGUGCUCCGUUGAAUGGAGUUUAUCAUG [A20C U31G A40U] | -0.279 |
| GGAUCUUCUCGAUCUAACAAAAAAGACAAAUCUGCCACAAAGCUUGAGAGUAUCUUCAGAUGCAGAGGCGGCAGCCUUCGGUGGCGCGAUAGCGCCAACGUUCUCAACUAUGACACGCAAAACGCGUGCUCCGUUGAAUGGAGUUUAUCAUG [C51U G58A] | -1.32 |
